Legend:
elastase I = target: T1, elastase I (Sus scrofa, UniProt P00772); test: Chaperone activity: protection of elastase I from heat denaturation; assay type: biochemical; conditions: boiling water bath for 30 seconds
T1 construct: purchased Worthington Biochemical Corporation 2280
Description: Bovine crystallin fractions were tested for ability to protect the proteases elastase I, trypsin and chymotrypsin from heat denaturation. Briefly, the proteases were heated in a boiling water bath for 30 seconds in the presence or absence of the crystallin fractions.

rat aortic ring = test: Rat aortic ring angiogenesis assay (Example 4.3); assay type: cell-based, Lewis rat; conditions: for % of Control: microvessel growth
Description: Four separate studies were carried out to determine the angiogenic effect of crystallin preparations. Each sample was assayed in triplicate. A positive control (VEGF) and a vehicle control containing PBS was also run in triplicate. […] Preliminary statistical significance was assessed with an independent Student t-test at α<0.05. Graphical representation of averages +/− standard errors were determined.
The first study investigated the angiogenic potential of bovine fractions prepared by gel filtration analysis as described in Example 3.2. As described in that Example, the alpha fraction contained αA and αB crystallin, the β H fraction contained all β crystallins, the β L1 fractions contained a sub-fraction of beta crystallins and a high content of βB2 crystallin and beta B3 crystallin and the beta L2 fraction contained only βB2 crystallin and βA3 crystallin.
The second study investigated the angiogenic potential of purified crystallin proteins. Briefly, βB3 crystallin was prepared by heating (97-99° C. for 3 minutes, supernatant collected by centrifugation) and was essentially homogenous. Alpha A crystallin and αB crystallin samples were prepared by ion exchange chromatography as described above and were also essentially homogenous. The Wound Heal 1-3 preparations were also tested in this study.
The third study investigated the angiogenic potential of ovine crystallin proteins compared to their bovine equivalents. Both bovine and ovine crystallin proteins were purified essentially to homogeneity by RP. HPLC using a C4 column, as described below in Example 5. Homogeneity was confirmed by SDS-PAGE. The effect of elastase I treatment of βB2 crystallin was also investigated by comparing the angiogenic potential of intact βB2 crystallin (i.e. undigested) with elastase I digested βB2 crystallin. Elastase I treatment releases the N-terminal and C-terminal extensions of the crystallin protein leaving a globular protein that is monomeric.
In the final study, ovine βB2 crystallin was tested alone or in combination with indoleamine 2,3-dioxygenase (IDO) and ovine alpha B crystallin was tested alone or in combination with tryptophan dioxygenase (TDO)
Briefly, in each study, a single Lewis rat was euthanised and its aorta transferred to a 15 mL Falcon tube containing 10 mL of MCBD-131 medium and stored on ice. After transferring the aorta to a 92×17 mm petri dish containing 10 mL of ice cold MCDB-131, the outer fatty tissue was removed under an Olympus SZ-60 Dissecting microscope. This was undertaken with fibre optic lamp illumination. The aorta was then cut into sequential rings approximately 2 mm in size. Connective tissue was removed with micro scissors and forceps from the outside of the individual rings. Clean rings were stored in a separate petri dish in sterile MCDB-131 medium. Rings were pre-incubated overnight at 37° C. in an atmosphere of 97% air/3% CO2.
To prepare gel sandwiches, 75 mg of fibrinogen was added to 25 mL MCDB-131 medium and shaken gently on a rocker roller for 5 minutes. 3 ml of MCDB-131/fibrinogen solution was added to a 15 mL Falcon tube, followed by 10 μL of thrombin and quickly mixed. A 0.4 mL volume of this fibrinogen-thrombin solution was added to each well on a 24 well plate, 6 wells at a time. Aortic rings were then placed on the setting gel, pushed gently into the gel and left for 45 minutes. These steps were then repeated so each ring was covered with 0.4 mL of gel. Gels were left to set at room temperature. […] The plate was then placed in incubator (37° C., 97% air/3% CO2).
Culture plate were examined daily for signs of infection (fungal growth or yellowing of media) in the wells using an inverted microscope. The growth of microvessels from their perimeters was also observed. Digital photographs of each well were taken seven days after plating using a Pixera PVC-100C digital camera mounted on an OLYMPUS CK-12 microscope and stored on a Macintosh Computer. […]

[1] = Body weight during wound healing assay (Example 3.6); assay type: in vivo, male Lewis rats; conditions: PBS control returned by day 11
Description: (§1) Body weights were measured on days 1, 3, 5, 7, 9, 11, 13, 15, 17, 19, 21 and 23 and deviations from original body weights (on day 1) calculated for each animal. On the same days, photographs were taken using a Canon Digital Eos 20D with a F2.8 Macro lens. Photographs were downloaded and wound areas measured using NIH Image J 1.633u software (National Institutes of Health (NIH), Rockville Pike, Bethesda, Md., United States). A laser speckle image was also taken at the same time as each space photograph was taken. Animals were weighed every second day when the photographic record of wound closure rate was also made.

[2] = tested on: full thickness 12 mm wound; test: Wound healing assay (Example 3.6); assay type: in vivo, male Lewis rats; conditions: for Wound areas: mg/wound: Wound heal 1 0.01, Wound heal 2 0.1, Wound heal 3 1.0, Aloe vera 20
Description: Thirty male Lewis rats were divided into 5 groups of 6 rats as outlined below in Table 7. Rats were age and weight matched. Rats were permitted rodent diet and water ad libitum throughout the study.
The animals were weighed two days before the start of the trial and weights grouped from lightest to heaviest. Animals were then randomly assigned to groups based on body weights, using 5×5 Latin squares so that group means were as similar as possible.
Approximately 30 minutes before wounding, each animal was given a subcutaneous injection of Temgesic at the base of the neck (0.075 mg/kg body weight). Each animal was anaesthetised using 3% halothane in oxygen. Once the pedal reflexes had been abolished, the animals were shaved from the base of the skull to the hind limb area using electric clippers. The skin on each rat was disinfected using 0.5% chlorhexidine in 70% ethanol. For each animal, the distance from the base of the skull to the top of the hip joint was measured and the wound position marked with a black felt tip pen, 6 cm below the base of the skull along the spinal axis.
Using asceptic techniques a full thickness incision was made at this position using a sterile 12 mm biopsy punch. Any bleeding was removed using cotton swabs. Care was taken that the punch was dry and that no debris (eg., skin, hair) entered the wounds. […] After photography of each wound using a Canon Digital EOS 20D camera with a F2.8 Macro lens, an aliquot of the sample was applied to the wounds on the rats in Groups A, B, D and E using a Gilson Microman CP 100 positive displacement pipette. The biopsy punch was wiped inside with a swab soaked in sterile saline to remove any tissue fluids and/or debris. The punch was then immersed in 70% ethanol before use on the next animal.
For applications and photographs after day 1 the animals were restrained without being anaesthetised.
as §1
The redness and swelling of each wound were individually scored from visual observation. These were scored on a scale of 0-3 as follows:
Descriptive statistics were evaluated. […] Major analyses were performed on all data points collected. Preliminary analyses were undertaken on control wounds only using t-tests. Univariate ANOVAs were used to assess differences between treatment and controls and samples nested within treatments. A separate ANOVA assessed whether there was a dose response using the treatment samples only. Assumptions for normality were tested using q-q plots on studentized residuals and heterogeneity of variances were tested using Levene's tests. SPSS 11 for Mac OSX was used for assumption testing and statistical analysis.

[3] = summary of second and third study

T1 sequence (P00772 27-266): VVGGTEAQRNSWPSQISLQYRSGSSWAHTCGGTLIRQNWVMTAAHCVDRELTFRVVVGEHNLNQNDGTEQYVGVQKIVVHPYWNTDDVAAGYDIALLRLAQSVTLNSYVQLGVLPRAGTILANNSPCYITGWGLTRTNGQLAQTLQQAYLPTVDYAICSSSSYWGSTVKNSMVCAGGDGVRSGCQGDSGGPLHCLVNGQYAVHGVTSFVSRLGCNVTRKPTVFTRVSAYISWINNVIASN

B1: Bovine αB crystallin: bovine αB crystallin prepared by ion exchange chromatography, essentially homogenous (protein)
chain: MDIAIHHPWIRRPFFPFHSPSRLFDQFFGEHLLESDLFPASTSLSPFYLRPPSFLRAPSWIDTGLSEMRLEKDRFSVNLDVKHFSPEELKVKVLGDVIEVHGKHEERQDEHGFISREFHRKYRIPADVDPLAITSSLSSDGVLTVNGPRKQASGPERTIPITREEKPAVTAAPKK
Elastase I
  chaperone activity: protection of elastase I from heat denaturation (in words): able to protect elastase I from heat inactivation
Rat aortic ring; second study, 200 μg/mL
  % of Control: 85.21%

B2: Tryptophan dioxygenase TDO: tryptophan hydrolyzing enzyme (protein, UniProt P48775 1-406, looked up)
Tryptophan 2,3-dioxygenase: MSGCPFLGNNFGYTFKKLPVEGSEEDKSQTGVNRASKGGLIYGNYLHLEKVLNAQELQSETKGNKIHDEHLFIITHQAYELWFKQILWELDSVREIFQNGHVRDERNMLKVVSRMHRVSVILKLLVQQFSILETMTALDFNDFREYLSPASGFQSLQFRLLENKIGVLQNMRVPYNRRHYRDNFKGEENELLLKSEQEKTLLELVEAWLERTPGLEPHGFNFWGKLEKNITRGLEEEFIRIQAKEESEEKEEQVAEFQKQKEVLLSLFDEKRHEHLLSKGERRLSYRALQGALMIYFYREEPRFQVPFQLLTSLMDIDSLMTKWRYNHVCMVHRMLGSKAGTGGSSGYHYLRSTVSDRYKVFVDLFNLSTYLIPRHWIPKMNPTIHKFLYTAEYCDSSYFSSDESD
Rat aortic ring; forth study, 100 μg/mL
  angiogenic activity (in words): stimulatory
  % of Control: 106.2%

B3: Ovine βB2 crystallin: intact ovine βB2 crystallin prepared by RP HPLC on C4 column (protein)
chain: ASDHQTQAGKPQPLNPKIIIFEQENFQGHSHELNGPCPNLKETGVEKAGSVLVQAGPWVGYEQANCKGEQFVFEKGEYPRWDSWTSSRRTDSLSSLRPIKVDSQEHKITLYENPNFTGKKMEVIDDDVPSFHAHGYQEKVSSVRVQSGTWVGYQYPGYRGLQYLLEKGDYKDSGDFGAPQPQVQSVRRIRDMQWHQRGAFHPS
Rat aortic ring; [3]
  angiogenic activity (in words): not angiogenic
Rat aortic ring; third study, 100 μg/mL
  % of Control: 103.5%

B4: Wound Heal 1: bovine βB2 crystallin, fractionated at pH 5.3 on Sephacryl 300 HR; Group B of Example 3, 0.01 mg/wound (protein)
chain: ASDHQTQAGKPQPLNPKIIIFEQENFQGHSHELNGPCPNLKETGVEKAGSVLVQAGPWVGYEQANCKGEQFVFEKGEYPRWDSWTSSRRTDSLSSLRPIKVDSQEHKITLYENPNFTGKKMEVIDDDVPSFHAHGYQEKVSSVRVQSGTWVGYQYPGYRGLQYLLEKGDYKDSGDFGAPQPQVQSVRRIRDMQWHQRGAFHPSS
Elastase I
  chaperone activity: protection of elastase I from heat denaturation (in words): not
Rat aortic ring; second study, 200 μg/mL
  % of Control: 94.52%
[1]
  day by which mean body weight had returned to the starting (pre-wounding) weight: ≤ 14 days
[2]; Day 1 (=100)
  Wound areas: 100
[2]; Day 3
  Wound areas: 86
[2]; Day 5
  Wound areas: 75
[2]; Day 7
  Wound areas: 69
[2]; Day 9
  Wound areas: 54
[2]; Day 11
  Wound areas: 32
[2]; Day 13
  Wound areas: 18
[2]; Day 15
  Wound areas: 13
[2]; Day 17
  Wound areas: 8
[2]; Day 19
  Wound areas: 4
[2]; Day 21
  Wound areas: 1.7
[2]; Day 23
  Wound areas: 1.4
[2]; day 5
  mean wound area: 123 ± 14.7 mm²
[2]; day 5, p=0.045 (Wound Heal 1), p=0.008 (Wound Heal 2)
  wound area at day 5, statistical significance: significantly smaller
[2]; rat, in vivo
  healing rate compared to Control group (PBS), in words: slightly faster healing rate than the reference group over the first 7 days

B5: Bovine βB2 crystallin (non-elastase treated): intact bovine βB2 crystallin prepared by RP HPLC on C4 column (protein, UniProt P02522 2-205, looked up)
Beta-crystallin B2: B4 chain
Rat aortic ring; [3]
  angiogenic activity (in words): not angiogenic
Rat aortic ring; third study, 100 μg/mL
  % of Control: 93.4%

Reference: patent US8404644B2, “Agents with angiogenic and wound healing activity” (Meat & Livestock Australia Limited, priority 2007, dated 2013)
